One may read the Kd as a measure of binding affinity in units of concentration. A low value points to higher affinity.

This note sets out measurements from patent US20210338833A1 (MIT, published 2021).

Assay [1] has as its target T1, FMC63 IgG.
T1 construct: Murine monoclonal antibody to human CD19; also called FMC63 IgG antibody; biotinylated FMC63 IgG
The assay can be described thus: yeast display FACS selection with biotinylated FMC63 IgG, second sort. The text has this: As in Example 1, a yeast library was generated using nested PCR and the primers in Table 3.

For assay [2], the target named is T1, FMC63 IgG. The assay can be described thus: yeast-display FACS (MFI) titration with biotinylated FMC63 IgG, 0.01-1000 nM.
The target in assay [3] is T2, FMC63 scFv (biotinylated).
T2 construct: Whole scFv entry (VL-(G4S)3-VH); also called FMC63-scFv monomer; biotinylated FMC63 scFv
The assay can be described thus: yeast-display FACS titration with biotinylated FMC63 scFv.

T1 sequence (VH, as listed by the source, chain 1 of 2): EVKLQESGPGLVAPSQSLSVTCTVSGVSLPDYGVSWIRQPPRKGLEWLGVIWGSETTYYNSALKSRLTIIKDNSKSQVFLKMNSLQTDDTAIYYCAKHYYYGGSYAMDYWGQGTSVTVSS
T1 sequence (VL, as listed by the source, chain 2 of 2): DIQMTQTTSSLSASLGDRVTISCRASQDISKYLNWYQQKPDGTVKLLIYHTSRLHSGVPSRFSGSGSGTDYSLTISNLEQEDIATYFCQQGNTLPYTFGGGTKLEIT
T2 sequence (scFv, as listed by the source): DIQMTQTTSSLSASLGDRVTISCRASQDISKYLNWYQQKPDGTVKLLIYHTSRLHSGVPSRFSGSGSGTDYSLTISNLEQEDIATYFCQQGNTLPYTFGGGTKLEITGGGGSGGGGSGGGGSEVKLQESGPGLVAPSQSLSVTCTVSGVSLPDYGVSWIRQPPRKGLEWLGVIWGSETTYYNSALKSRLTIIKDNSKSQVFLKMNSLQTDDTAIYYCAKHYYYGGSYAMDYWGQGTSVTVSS

B1: FMC63 Mimotope RICPWGCKEL (peptide)
peptide: RICPWGCKEL
On to B1, for which the binding result in assay [1] was “binds”.

B2: FMC63 Mimotope (C5) RMCPWSCYEL (peptide)
peptide: RMCPWSCYEL
With B2, the Kd in assay [2] amounted to 322 nM; in assay [3], 238 nM.

B3: FMC63 Mimotope RLCPWSCIKL (peptide)
peptide: RLCPWSCIKL
Consider B3, for which, in assay [1], the binding result is given as “binds”.

B4: FMC63 Mimotope (G9) RLCPWSCREL (peptide)
peptide: RLCPWSCREL
notes: Parent of the alanine scan
Turning to B4, the Kd is 25.7 nM in assay [2] and 50.6 nM in assay [3].

B5: FMC63 Mimotope RLCPWNCQEL (peptide)
peptide: RLCPWNCQEL
On to B5, for which the binding result in assay [1] is “binds”.

B6: FMC63 Mimotope RLCPWNCRQL (peptide)
peptide: RLCPWNCRQL
As to B6, the binding result in assay [1] is on record as “binds”.

B7: FMC63 Mimotope (F8) RLCPWDCREL (peptide)
peptide: RLCPWDCREL
With B7, the Kd in assay [2] was determined as 10.6 nM; in assay [3] it was 41.5 nM.

B8: FMC63 Mimotope RICPWSCRPL (peptide)
peptide: RICPWSCRPL
As to B8, in assay [1], the binding result is “binds”.

B9: FMC63 Mimotope RLCPWDCKEL (peptide)
peptide: RLCPWDCKEL
As for B9, the binding result in assay [1] is given as “binds”.

B10: FMC63 Mimotope (H8) RICPWACVEL (peptide)
peptide: RICPWACVEL
For the molecule B10, the results for the Kd in assay [2] and in assay [3] were 9.5 nM and 38.9 nM, respectively.

B11: FMC63 Mimotope RLCPWKCREL (peptide)
peptide: RLCPWKCREL
For the molecule B11, in assay [1], the binding result is given as “binds”.

B12: FMC63 Mimotope RLCPWNCSEL (peptide)
peptide: RLCPWNCSEL
As to B12, the binding result in assay [1] is “binds”.

B13: FMC63 Mimotope (H11) RICPWSCREL (peptide)
peptide: RICPWSCREL
Regarding B13, the Kd in assay [2] was 10.3 nM; in assay [3], 38.6 nM.

B14: FMC63 Mimotope (G11) RLCPWNCREL (peptide)
peptide: RLCPWNCREL
Turning to B14, the Kd was found to be 18.2 nM in assay [2] and 38.4 nM in assay [3].

B15: FMC63 Mimotope RICPWSCMEL (peptide)
peptide: RICPWSCMEL
Regarding B15, the binding result in assay [1] was “binds”.

B16: FMC63 Mimotope RICPWSCIEL (peptide)
peptide: RICPWSCIEL
For B16, in assay [1], the binding result was “binds”.

B17: FMC63 Mimotope RMCPWNCREL (peptide)
peptide: RMCPWNCREL
For the molecule B17, the binding result in assay [1] was “binds”.

B18: FMC63 Mimotope RICPWSCVEL (peptide)
peptide: RICPWSCVEL
B18: the binding result in assay [1] is “binds”.

B19: FMC63 Mimotope RLCPWSCIPF (peptide)
peptide: RLCPWSCIPF
For B19, the binding result in assay [1] was “binds”.

B20: FMC63 Mimotope RICPWDCKPI (peptide)
peptide: RICPWDCKPI
As for B20, the binding result in assay [1] is recorded as “binds”.

B21: FMC63 Mimotope (A12) RRCPWSCKKQ (peptide)
peptide: RRCPWSCKKQ
As to B21, the Kd is 540 nM in assay [2] and 240 nM in assay [3].

B22: FMC63 Mimotope RLCPWSCLEI (peptide)
peptide: RLCPWSCLEI
Regarding B22, the binding result in assay [1] is listed as “binds”.

B23: FMC63 Mimotope (B7) RICPWSCMVV (peptide)
peptide: RICPWSCMVV
Molecule B23 gave a Kd in assay [2] of 376 nM.

B24: FMC63 Mimotope RICPWSCVKQ (peptide)
peptide: RICPWSCVKQ
In the case of B24, the binding result in assay [1] is listed as “binds”.

B25: FMC63 Mimotope (A8) RMCPWSCRPH (peptide)
peptide: RMCPWSCRPH
B25: the equilibrium dissociation constant (Kd) in assay [2] amounted to 397 nM.

B26: FMC63 Mimotope RLCPWSCVEQ (peptide)
peptide: RLCPWSCVEQ
On to B26, for which the binding result in assay [1] is “binds”.
